The results in this text go back to article PMC8443317.

pKd: −log10 of the molar value.

This experiment addresses recombinant human angiotensin-converting enzyme 2 (ACE2) receptor, biotinylated (human) (UniProt Q9BYF1). In words: SPR. In general terms: In SPR one partner is held on a chip, and binding of the other changes the refractive index at the surface.

The pKd is the Kd on a negative log10 scale, so that one unit is a factor of ten. As for “recombinant original SARS-CoV-2 spike S1 protein (domain or fragment)”, the pKd is 7.98.

As a reminder, the koff is the first-order rate constant of dissociation. The kon is the second-order rate constant of association. For “SARS-CoV-2 spike S1 variant D614G (domain or fragment)”, the pKd was 7.37, the koff was 0.00578 s⁻¹ and the kon stood at 138000 M⁻¹ s⁻¹.
